In data set [1] the test system is RAW264.7 cells. The experiment in a line: Exogenous 2-AG metabolism to PGD2-G by RAW264.7 cells (LC/MS). It is filed as cell-based, murine. As to conditions: inhibitor 3 μM, activated RAW264.7 cells, 2-AG 20 μM.
The target in data set [2] is T1, COX-2 (Homo sapiens, UniProt P35354).
T1 sequence (P35354 18-604): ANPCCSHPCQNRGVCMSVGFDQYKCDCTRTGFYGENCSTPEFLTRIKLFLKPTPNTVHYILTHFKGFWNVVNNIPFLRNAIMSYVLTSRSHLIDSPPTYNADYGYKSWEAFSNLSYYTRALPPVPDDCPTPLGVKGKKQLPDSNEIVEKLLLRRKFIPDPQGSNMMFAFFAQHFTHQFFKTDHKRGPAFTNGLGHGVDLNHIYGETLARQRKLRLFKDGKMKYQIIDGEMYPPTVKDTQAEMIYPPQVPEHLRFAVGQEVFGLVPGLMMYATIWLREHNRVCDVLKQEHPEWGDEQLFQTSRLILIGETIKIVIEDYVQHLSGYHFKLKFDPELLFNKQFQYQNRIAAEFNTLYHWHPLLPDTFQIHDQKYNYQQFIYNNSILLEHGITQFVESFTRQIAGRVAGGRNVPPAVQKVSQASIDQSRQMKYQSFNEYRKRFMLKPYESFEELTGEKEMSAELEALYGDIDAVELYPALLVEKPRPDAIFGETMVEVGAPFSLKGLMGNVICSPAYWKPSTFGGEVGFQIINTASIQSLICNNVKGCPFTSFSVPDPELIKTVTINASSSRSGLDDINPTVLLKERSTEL
The data set is described as follows: HPLC/UV quantification of products in base-treated COX-2/2-AG incubation mixtures. It is filed as biochemical. As to conditions: COX-2 oxygenation of 2-AG, n=5. As for the experimental part: Estimates of relative amounts of the individual PG-Gs can be made by reversed-phase HPLC with UV detection. […] Quantification of PGE2-G and HETE-Gs is accomplished by HPLC/UV analysis of base-treated COX-2/2-AG incubation mixtures using 5-HETE as an internal standard. PGE2-G is the major product of oxygenation (PGE2-G/HETE-G=4.0±0.1, n=5) and 11-HETE-G is more abundant than 15-HETE-G (11-HETE-G/15-HETE-G=3.4±0.1, n=5). HETE-G regiochemistry is confirmed by mass spectrometry of saponified, HPLC-purified HETE products.

For data set [3] the following is noted: buffer.
Substrate in data set [4]: CCCCC/C=C\C/C=C\C/C=C\C/C=C\CCCC(=O)O
The data set is described as follows: Steady-state kinetics of COX-2 mediated oxygenation (O2 uptake), murine enzyme. The format is biochemical. As to conditions: other: mCOX-2, substrate oxygenation. As for the experimental part: (§1) The ability of COX-1 and COX-2 to metabolize different substrates, such as 2-AG and arachidonic acid (AA) can be determined, for example, by measuring relative oxygen uptake. FIG. 9 is a representative oxygen uptake curve for 100 μM 2-AG or AA treated with 150 nM purified COX-2 or 150 nM ovine COX-1. The horizontal bar represents 20-seconds. The vertical bar represents 10 μM O2 uptake.

Substrate in data set [5]: CCCCC/C=C\C/C=C\C/C=C\C/C=C\CCCCOC(CO)CO
The description is as above. It is filed as biochemical. As to conditions: other: mCOX-2, substrate oxygenation. As for the experimental part: as §1

Substrate in data set [6]: CCCCC/C=C\C/C=C\C/C=C\C/C=C\CCCC(=O)O
The data set is described as follows: Steady-state kinetics of COX-2 mediated oxygenation (O2 uptake), human enzyme. It is filed as biochemical. As to conditions: other: hCOX-2, substrate oxygenation. As for the experimental part:
as §1

Substrate in data set [7]: CCCCC/C=C\C/C=C\C/C=C\C/C=C\CCCCOC(CO)CO
The data set is described as above. The format is biochemical. As to conditions: other: hCOX-2, substrate oxygenation. As for the experimental part:
as §1

Broadly, the Km is the substrate concentration at which the rate is half of its maximum. As a reminder, the kcat is the number of substrate molecules converted per active site and unit of time at saturation. The term kcat/Km denotes the second-order rate constant that governs catalysis at low substrate concentration.

As for `COc1ccc2c(c1)c(CC(=O)NCCc1ccccc1)c(C)n2C(=O)c1ccc(Cl)cc1` [indomethacin phenethylamide, 2-[1-(4-chlorobenzoyl)-5-methoxy-2-methyl-1H-indol-3-yl]-N-phenethylacetamide], the “Effect on PGD2-G biosynthesis” value in data set [1] is on record as “inhibited”.

As to `CCCCC[C@H](O)/C=C/[C@H]1[C@H](O)CC(=O)[C@@H]1C/C=C\CCCC(=O)OCC(O)CO` (some centres unmarked) [PGE2-G, prostaglandin E2-glycerol ester], the PGE2-G/HETE-G product ratio in data set [2] was determined as 4.0±0.1.

As to `COc1ccc2c(c1)c(CC(=O)O)c(C)n2C(=O)c1ccc(Cl)cc1` [indomethacin], the “Effect on PGD2-G biosynthesis” value in data set [1] was “inhibited”.

On to `CCCCC[C@H](O)/C=C/[C@@H]1[C@@H](C/C=C\CCCC(=O)OC(CO)CO)[C@@H]2C[C@H]1OO2` [PGH2-G, prostaglandin H2-glycerol ester], for which, in data set [3], the “half-life in aqueous solution” value is listed as “approximately 20 seconds”.

Regarding `CCCCCC=CC=CC(O)CC=CCC=CCCCC(=O)OC(CO)CO` (centres unmarked) [11-HETE-G, 11-hydroxy-eicosatetranoic glycerol ester], the 11-HETE-G/15-HETE-G product ratio in data set [2] is 3.4±0.1.

B1: mCOX-2 (Mus musculus) (protein)
chain: ANPCCSNPCQNRGECMSTGFDQYKCDCTRTGFYGENCTTPEFLTRIKLLLKPTPNTVHYILTHFKGVWNIVNNIPFLRSLIMKYVLTSRSYLIDSPPTYNVHYGYKSWEAFSNLSYYTRALPPVADDCPTPMGVKGNKELPDSKEVLEKVLLRREFIPDPQGSNMMFAFFAQHFTHQFFKTDHKRGPGFTRGLGHGVDLNHIYGETLDRQHKLRLFKDGKLKYQVIGGEVYPPTVKDTQVEMIYPPHIPENLQFAVGQEVFGLVPGLMMYATIWLREHNRVCDILKQEHPEWGDEQLFQTSRLILIGETIKIVIEDYVQHLSGYHFKLKFDPELLFNQQFQYQNRIASEFNTLYHWHPLLPDTFNIEDQEYSFKQFLYNNSILLEHGLTQFVESFTRQIAGRVAGGRNVPIAVQAVAKASIDQSREMKYQSLNEYRKRFSLKPYTSFEELTGEKEMAAELKALYSDIDVMELYPALLVEKPRPDAIFGETMVELGAPFSLKGLMGNPICSPQYWKPSTFGGEVGFKIINTASIQSLICNNVKGCPFTSFNVQDPQPTKTATINASASHSRLDDINPTVLIKRRSTEL
As to B1, in data set [4], the Michaelis-Menten constant (Km) came to 8.2 ± 1.6 µM, the turnover number (kcat) came out at 20.5 ± 1.6 s⁻¹ and the catalytic efficiency (kcat/Km) was found to be 2.5e+06 M⁻¹ s⁻¹. In data set [5], the Km is 4.7 ± 0.8 µM, the catalytic constant (kcat) was determined as 11.1 ± 0.7 s⁻¹ and the kcat/Km is 2.3e+06 M⁻¹ s⁻¹.

B2: hCOX-2 (Homo sapiens) (protein)
chain: ANPCCSHPCQNRGVCMSVGFDQYKCDCTRTGFYGENCSTPEFLTRIKLFLKPTPNTVHYILTHFKGFWNVVNNIPFLRNAIMSYVLTSRSHLIDSPPTYNADYGYKSWEAFSNLSYYTRALPPVPDDCPTPLGVKGKKQLPDSNEIVEKLLLRRKFIPDPQGSNMMFAFFAQHFTHQFFKTDHKRGPAFTNGLGHGVDLNHIYGETLARQRKLRLFKDGKMKYQIIDGEMYPPTVKDTQAEMIYPPQVPEHLRFAVGQEVFGLVPGLMMYATIWLREHNRVCDVLKQEHPEWGDEQLFQTSRLILIGETIKIVIEDYVQHLSGYHFKLKFDPELLFNKQFQYQNRIAAEFNTLYHWHPLLPDTFQIHDQKYNYQQFIYNNSILLEHGITQFVESFTRQIAGRVAGGRNVPPAVQKVSQASIDQSRQMKYQSFNEYRKRFMLKPYESFEELTGEKEMSAELEALYGDIDAVELYPALLVEKPRPDAIFGETMVEVGAPFSLKGLMGNVICSPAYWKPSTFGGEVGFQIINTASIQSLICNNVKGCPFTSFSVPDPELIKTVTINASSSRSGLDDINPTVLLKERSTEL
Regarding B2, in data set [6], the Michaelis-Menten constant (Km) is 6.1 ± 0.6 µM, the kcat stood at 14.7 ± 0.5 s⁻¹ and the kcat/Km turned out to be 2.4e+06 M⁻¹ s⁻¹. In data set [7], the Michaelis constant (Km) came out at 4.4 ± 0.9 µM, the kcat turned out to be 17.4 ± 1.1 s⁻¹ and the specificity constant (kcat/Km) came out at 4e+06 M⁻¹ s⁻¹.

The record behind these values is US7628975B2, “Compositions and methods for detecting and quantifying COX-2 activity and 2-arachidonylgycerol metabolites” (Vanderbilt University, priority 2000, dated 2009).
